Assay results published in the RNAGym collection of RNA variant scans (doi:10.7554/elife.80360).

B1: Hairpin Ribozyme (parent)
chain: GUCCUCUUUCACGUGCGCGUGAAAGAGAGAAGUGAACCAGAGAAACACACGUUGUGGUAUAUUACCUGGUA

Variants of: B1
Test: self-cleavage, relative activity (ratio to wild type); higher = more cleavage; co-transcriptional
For G19C A28C, the self-cleavage was 0.304. With G19C A28G the self-cleavage was 1.15. In the case of G19A U62G, the self-cleavage is reported as 0.103. With G19U A44U the self-cleavage was 0.124. For U20A G54A, the self-cleavage was 0.546. G19C A35C showed a self-cleavage of 0.832. For G19C A35U, the self-cleavage was 0.574. Work on G19U A31U yielded a self-cleavage of 0.0864. For G19C A26G, the self-cleavage was 0.692. For G19U A30U, the self-cleavage was 0.181. G19U A30G showed a self-cleavage of 0.12. Variant G19A U55G has a self-cleavage of 0.216. For G19A U55C, the self-cleavage was 0.123. With G19A U55A the self-cleavage was 0.29. Work on G19A U60G yielded a self-cleavage of 0.448. Variant G19A U60A has a self-cleavage of 0.658. In the case of G19A U60C, the self-cleavage is reported as 1.05. G19C G29A showed a self-cleavage of 0.112. With G19U A49U the self-cleavage was 0.158. Work on G19C U70A yielded a self-cleavage of 0.673. Variant U20A U33C has a self-cleavage of 0.186. G19C A30G gave a self-cleavage of 0.187. Work on G19U U20A yielded a self-cleavage of 0.825. For G19U A26U, the self-cleavage was 0.682. Work on G19A G69C yielded a self-cleavage of 0.129. Variant G19A G69A has a self-cleavage of 0.347. For G19C U58G, the self-cleavage was 0.705. Variant G19C U58C has a self-cleavage of 0.815. Work on U20A A26U yielded a self-cleavage of 0.611. U20A A26C gave a self-cleavage of 0.394. G19C G57A showed a self-cleavage of 0.174. Work on G19A U52C yielded a self-cleavage of 0.835. G19C A44G showed a self-cleavage of 0.0921. Work on G19U yielded a self-cleavage of 0.891. With G19C the self-cleavage was 0.85. For U20A U53A, the self-cleavage was 0.758. Work on G19C G42A yielded a self-cleavage of 0.194. With G19C G42C the self-cleavage was 0.329. G19U G21A showed a self-cleavage of 0.875. G19U C66A showed a self-cleavage of 0.272. U20A A47U gave a self-cleavage of 0.274. With U20A A47G the self-cleavage was 0.185. U20A A36U showed a self-cleavage of 0.497. In the case of G19C C48G, the self-cleavage is reported as 0.165. Variant U20A G68U has a self-cleavage of 0.297. U20A G68A showed a self-cleavage of 0.332. With G19C U67G the self-cleavage was 0.227. G19C U67A gave a self-cleavage of 0.323. G19U C48G gave a self-cleavage of 0.2. Variant G19C G21U has a self-cleavage of 0.718. Work on G19U A71G yielded a self-cleavage of 1.02. G19U G68C gave a self-cleavage of 0.196. For G19C G54U, the self-cleavage was 0.626. Work on G19U A43C yielded a self-cleavage of 0.101. G19U U62A showed a self-cleavage of 0.268. Variant G19U U62G has a self-cleavage of 0.24. In the case of G19U C38A, the self-cleavage is reported as 0.141. With G19U C38U the self-cleavage was 0.481. G19U U70G gave a self-cleavage of 0.79. Variant U20A G32A has a self-cleavage of 0.18. In the case of G19C G68A, the self-cleavage is reported as 0.276. Work on G19C G68C yielded a self-cleavage of 0.222. In the case of G19A G68U, the self-cleavage is reported as 0.242. For G19C U60C, the self-cleavage was 0.984. In the case of G19C U60A, the self-cleavage is reported as 0.9. Work on G19C U60G yielded a self-cleavage of 0.541. Work on G19A G57A yielded a self-cleavage of 0.152. G19A G57C gave a self-cleavage of 0.138. Variant U20A G57A has a self-cleavage of 0.204. U20A G57C showed a self-cleavage of 0.215. In the case of G19C G40A, the self-cleavage is reported as 0.343. Variant G19C G40U has a self-cleavage of 0.091. In the case of G19U U52G, the self-cleavage is reported as 0.741. Variant G19C U53A has a self-cleavage of 0.861. U20A A24U gave a self-cleavage of 0.732. Variant U20A G40C has a self-cleavage of 0.0677. With G19A U53A the self-cleavage was 0.919. With U20A A49U the self-cleavage was 0.272. For U20A A49C, the self-cleavage was 0.131. In the case of U20A U60C, the self-cleavage is reported as 0.995. G19C A61G gave a self-cleavage of 0.144. G19C A61U showed a self-cleavage of 0.25. Work on G19C A43U yielded a self-cleavage of 0.121. In the case of G19U A39G, the self-cleavage is reported as 0.297. G19A G42C gave a self-cleavage of 0.289. With G19U A22U the self-cleavage was 0.648. U20A G25U showed a self-cleavage of 0.529. In the case of U20A G25A, the self-cleavage is reported as 0.453. In the case of G19C A31G, the self-cleavage is reported as 0.524. For G19C A31U, the self-cleavage was 0.0995. In the case of G19C G32A, the self-cleavage is reported as 0.147. Work on G19C A36G yielded a self-cleavage of 0.766. Variant G19C U55C has a self-cleavage of 0.271. Work on U20A G29A yielded a self-cleavage of 0.101. U20A A41G gave a self-cleavage of 0.681. For G19C G56A, the self-cleavage was 0.101. With G19U G27A the self-cleavage was 0.489. Variant U20A A35G has a self-cleavage of 0.815. U20A A35C showed a self-cleavage of 0.967. U20A A30C showed a self-cleavage of 0.253. Work on G19U G40A yielded a self-cleavage of 0.325. Variant G19C A45C has a self-cleavage of 0.114. G19C A45G showed a self-cleavage of 0.277. G19A U70C showed a self-cleavage of 0.922. Work on G19U C37A yielded a self-cleavage of 0.34. G19U G32A gave a self-cleavage of 0.124. For U20A U52G, the self-cleavage was 0.685. In the case of U20A G51C, the self-cleavage is reported as 0.846. In the case of U20A A45C, the self-cleavage is reported as 0.109. U20A A45G showed a self-cleavage of 0.183. G19U G57C showed a self-cleavage of 0.105. For U20A G56C, the self-cleavage was 0.145. Work on U20A G56A yielded a self-cleavage of 0.108. Work on G19U A24U yielded a self-cleavage of 0.684. Variant G19U A24G has a self-cleavage of 0.926. G19C A59G showed a self-cleavage of 0.153. G19U U60A gave a self-cleavage of 0.804. With G19U U60G the self-cleavage was 0.444. In the case of U20A A31C, the self-cleavage is reported as 0.21. Variant G19U C50A has a self-cleavage of 0.329. For G19C C66G, the self-cleavage was 0.245. For U20A C37G, the self-cleavage was 0.375. In the case of U20A A28U, the self-cleavage is reported as 0.497. With G19C C38U the self-cleavage was 0.489. G19C C38A showed a self-cleavage of 0.174. Variant U20A G34C has a self-cleavage of 1.26. U20A G34A showed a self-cleavage of 0.993. Variant G19U A64G has a self-cleavage of 0.539. With G19U A64C the self-cleavage was 0.162. G19U C65A showed a self-cleavage of 0.733. With G19U C65G the self-cleavage was 0.405. U20A A22U gave a self-cleavage of 0.849. Variant U20A A22G has a self-cleavage of 0.587. Work on U20A A22C yielded a self-cleavage of 0.373. U20A G21A gave a self-cleavage of 0.79. In the case of U20A G21U, the self-cleavage is reported as 0.642. Work on G19C U52A yielded a self-cleavage of 0.957. With G19C A23C the self-cleavage was 0.696. In the case of G19U G29A, the self-cleavage is reported as 0.111. In the case of G19U G29U, the self-cleavage is reported as 0.14. For G19U U67C, the self-cleavage was 0.214. With G19U U63A the self-cleavage was 0.166. For G19A G54C, the self-cleavage was 0.403. Work on G19A U67C yielded a self-cleavage of 0.186. In the case of G19U G54A, the self-cleavage is reported as 0.468. Work on G19U G54U yielded a self-cleavage of 0.497. For G19C C46A, the self-cleavage was 0.303. In the case of U20A A71U, the self-cleavage is reported as 0.735. U20A A71C gave a self-cleavage of 1.15. In the case of U20A U67C, the self-cleavage is reported as 0.237. Work on U20A C50U yielded a self-cleavage of 0.5. In the case of U20A C50A, the self-cleavage is reported as 0.423. Work on G19U A28C yielded a self-cleavage of 0.357. Variant G19U A28U has a self-cleavage of 0.628. In the case of U20A C66A, the self-cleavage is reported as 0.231. U20A A64G showed a self-cleavage of 0.562. With G19U A59G the self-cleavage was 0.204. Variant G19U A59U has a self-cleavage of 0.213. Work on U20A U62A yielded a self-cleavage of 0.239. In the case of G19C A49G, the self-cleavage is reported as 0.366. With G19C A49C the self-cleavage was 0.0455. U20A A43U showed a self-cleavage of 0.0666. Work on U20A A43G yielded a self-cleavage of 0.348. G19U G69U gave a self-cleavage of 0.227. G19U G34C gave a self-cleavage of 1.36. G19U G34U gave a self-cleavage of 1.3. Work on G19C G34C yielded a self-cleavage of 1.31.
